Reference: patent US20100210511A1, “Combination VEGFR2 Therapy with Temozolomide” (Bristol-Myers Squibb Company, priority 2009, published 2010)

B1: Compound 1: VEGFR2 specific inhibitor represented by SEQ ID NO: 4, 10Fn3-based, modified with a single branched 40 kDa PEG at the C-terminal cysteine (protein)
chain: GEVVAATPTSLLISWRHPHFPTRYYRITYGETGGNSPVQEFTVPLQPPTATISGLKPGVDYTITVYAVTDGRNGRLLSIPISINYRTEIDKPCQ
modifications: branched 40 kDa PEG at C-terminal cysteine

Legend:
[1] = test system: U87vIIILuc Glioblastoma Cells; test: Bioluminescent imaging (BLI) of U87vIIILuc tumor growth (Example 2); format: in vivo, NOD-SCID mice; settings: Compound 1 60 mg/kg IP 3x/week, TMZ 34 mg/kg orally QD×5
Excerpt: (§1) Tumor Implantation. 9 week-old male NOD-SCID mice (Charles River Laboratories, Wilmington, Mass., USA) were anesthetized by 2% isoflurane. 5×10^4 U87vIIIluc tumor cells were implanted intracranially using the following stereotactic coordinates: 0.5 mm posterior, 2.5 mm lateral, and 3.5 mm intraparenchymal Animal care was kept in strict accordance with the institutional animal care and use committee of Massachusetts General Hospital.
(§2) Drug Administration. After randomization, 24 mice were divided into 4 groups (PBS, Compound 1 only, TMZ only, and Compound 1+TMZ) with 6 mice per group. PBS and Compound 1 (60 mg/kg) were delivered intraperitoneally in 200 ul IP volumes three times per week throughout the study until mice reached established criteria for euthanasia. Temozolomide (TMZ) was delivered orally (34 mg/kg) once daily for five days.
Scanning Mice were anesthetized using 1-2% isoflurane before intraperitoneal injection of D-luciferin salt (150 mg/kg in 200 ul PBS; Caliper Life Sciences, Hopkinton Mass.). Bioluminescent imaging (BLI) was performed in a high sensitivity, cooled CCD camera (IVIS®, Xenogen) at five-minute intervals until peak values were recorded for all mice. BLI imaging was performed on days 6, 13, 20 and 26.
Image Analysis. Living Image® software (Xenogen) was used for image capture and signal quantification. Imaging schedules are described in the treatment groups. […]

[2] = test system: U87vIIILuc Glioblastoma Cells; test: Survival of NOD-SCID mice intracranially implanted with U87vIIILuc glioblastoma cells (Example 2); format: in vivo; settings: intracranial U87vIIILuc; Compound 1 60 mg/kg IP three times per week; TMZ 34 mg/kg orally once daily for five days; 6 mice per group
Excerpt: as §1, §2
(§3) Results are shown in FIG. 1 (Compound 1=VEGFR2 specific inhibitor represented by SEQ ID NO: 4; Compound 2=TMZ; PBS=phosphate buffered saline (vehicle control)). The Y-axis indicates percent survival within each group over the length of the study Animals were followed for survival and sacrificed at the first sign of morbidity. Mean survival was 19, 29, 32 and 47 days for PBS, Compound 1, TMZ, and Compound 1+TMZ, respectively.

[3] = test system: CD31 (endothelial blood vessel formation marker); test: Immunohistochemical staining for CD31 on brain tissue sections (microvascular density); format: in vivo, NOD-SCID mice; settings: Day 14 IHC analysis; compared to TMZ or PBS groups
Experimental: IHC staining for CD31 was performed on paraffin-embedded mouse brain tissue sections using Rat on mouse HRP-Polymer® (Biocare Medical). Briefly, sections were deparaffinized, rehydrated and treated with peroxidase (PEROXIDAZED 1, Biocare Medical) for 5 min at room temperature. To expose antigens, sections were treated with trypsin (CAREZYME 1®, Biocare Medical) for 10 min at 37° C. Unspecific protein was blocked by using Rodent Block M® (Biocare Medical) for 30 min. Thereafter, sections were incubated with rat monoclonal anti-CD31 (1:50, Biocare Medical) antibody for 2 h at room temperature. Subsequently, sections were incubated with Rat Probe® (Biocare Medical) for 15 min at room temperature, followed by incubation with Rat-Polymer HRP® (Biocare Medical) for 20 min at room temperature.
To visualize antigens in the tissue, DAB chromogen substrate (Biocare Medical) were used for 5 min Finally, sections were lightly counter-stained with Mayer's hematoxylin. For a negative control, the incubation step with primary antibody was omitted.
Immunohistochemical staining against CD31 (endothelial blood vessel formation marker), Ki67 (cell proliferation marker) or cleaved-caspase 3 (cellular apoptosis marker) was performed on paraffin-embedded brain tissue sections. […]

[4] = test system: U87vIIILuc Glioblastoma Cells; test: Survival in U87vIIILuc glioma model, triple administration with radiation therapy (Example 3); format: in vivo, NOD-SCID mice; settings: radiation insensitive glioblastoma model; compared to RT alone or standard of care (TMZ+RT)
Experimental: Tumor implantation was performed as described above in Example 2.
Drug Administration. After randomization, 32 mice were divided into 4 groups (PBS, Radiation Therapy (RT) only, Compound 2 & RT, and Compound 1+Compound 2 & RT) with 8 mice per group. PBS and Compound 1 (60 mg/kg) were delivered intraperitoneally in 200 ul IP volumes three times per week throughout the study until mice reached established criteria for euthanasia. Compound 2 (TMZ) was delivered orally (34 mg/kg) once daily for five days. Compound 2 and RT treatments were initiated after the third dose of Compound 1.
Radiation Therapy. Mice were shielded in a custom-designed block with an aperture of 0.8 cm. After anesthetic induction (ketamine 118 mg/kg i.p.+xylazine 11.8 mg/kg i.p.), mice were irradiated to a total dose of 10 Gy in three daily fractions. 10 Gy were experimentally determined to be the highest tolerable dose for this model.
as §3, with “FIG. 5” for “FIG. 1”, “2=TMZ; RT=Radiation Therapy;” for “2=TMZ;”, “was 22, 23, 33” for “was 19, 29, 32”, “PBS, Radiation Therapy,” for “PBS,”, “Compound 2 & RT,” for “Compound 1, TMZ,”, “Compound 1+Compound 2 & RT,” for “Compound 1+TMZ,”

| Molecule | Day 13 mean BLI values (photons/sec×10^6) increased by, fold [1] | Mean survival [2] [days] | Blood vessel formation by CD31 staining [3] | Survival benefit (in words) [4] |
| --- | --- | --- | --- | --- |
| Cn1nnc2c(C(N)=O)ncn2c1=O [TMZ, temozolomide] | 6.17×10^1 fold | 32 | – | – |
| B1 | 1.79×10^2 fold | 29 | strongly reduced blood vessel formation | can enhance survival |
